{"source": "paper PMC11350714", "about": "(JACS Au, 2024)", "target": "the molecule itself", "experiment": "mass photometry", "data": [{"protein": "MERS-CoV main protease (M^pro) (enzyme) SGLVKMSHPSGDVEACMVQVTCGSMTLNGLWLDNTVWCPRHVMCPADQLSDPNYDALLISMTNHSFSVQKHIGAPANLRVVGHAMQGTLLKLTVDVANPSTPAYTFTTVKPGAAFSVLACYNGRPTGTFTVVMRPNYTIKGSFLCGSCGSVGYTKEGSVINFCYMHQMELANGTHTGSAFDGTMYGAFMDKQVHQVQLTDKYCSVNVVAWLYAAILNGCAWFVKPNRTSVVSFNEWALANQFTEFVGTQSVDMLAVKTGVAIEQLLYAIQQLYTGFQGKQILGSTMLEDEFTPEDVNMQIMGVVMQ", "values": [{"measurement": "stoichiometry N", "value": 2}]}]}
